Assay in all cases: co-IP, anti-FLAG, N-FLAG B3GNT2 cell lysate, mass spectrometry
One test addresses T1, SRSF1 (UniProt Q07955 2-248).
T1 construct: also called NP_008855.1
Here is the method:
(§1) Cells were plated in 10-cm cell culture dishes and grown to 60-80% confluency. For each condition, two biological replicates were harvested for co-IP. Cells were washed with PBS and 4 mL of lysis buffer (20 mM HEPES, 1% Triton X-100, 150 mM NaCl, 1 mM EDTA, and 10% glycerol) containing protease inhibitor cocktail was added. Cells were scraped and lysate was incubated at 4° C. under rotary agitation for 1 h. Lysate was centrifuged at 14,000×g for 10 min at 4° C. Supernatant was transferred to a new tube and an aliquot was taken as the input. […] For Western blots, 10 μg/mL Chicken Anti-FLAG (Aves labs ET-DY100) and IgY control (R&D Systems AB-101-C) antibodies were biotinylated (Thermo Fisher Scientific 90407) and added to the respective conditions. Lysates with antibodies were incubated at 4° C. under rotary agitation overnight. For each mL of lysate, 50 μL of Pierce Protein A/G Magnetic Beads (Mass spectrometry; Thermo Fisher Scientific 88803) or Pierce Streptavidin Magnetic Beads (Western blot; Thermo Fisher Scientific 88817) was washed twice with lysis buffer. Lysates with antibodies were added to the beads and incubated at 4° C. under rotary agitation for 4 h. Beads were washed with lysis buffer 3 times and resuspended in lysis buffer for storage.
(§2) Magnetic beads were resuspended in 100 mM Tris pH 7.8, reduced, alkylated and digested with trypsin at 37° ° C. overnight. This solution was subjected to solid phase extraction to concentrate the peptides and remove unwanted reagents followed by injection onto a Shimadzu HPLC with fraction collector. Eight fractions were collected and after concentration were injected on a Waters NanoAcquity HPLC equipped with a self-packed Aeris 3 μm C18 analytical column 0.075 mm by 20 cm, (Phenomenex). Peptides were eluted using standard reverse-phase gradients. The effluent from the column was analyzed using a Thermo Orbitrap Elite mass spectrometer (nanospray configuration) operated in a data dependent manner for 54 minutes. The resulting fragmentation spectra were correlated against the known database using Proteome Discover 1.4 (Thermo Fisher Scientific).

A further test addresses T2, ARG1 (UniProt P05089 1-322).
T2 construct: also called NP_000036.2 (+1)
T2 sequence (looked up): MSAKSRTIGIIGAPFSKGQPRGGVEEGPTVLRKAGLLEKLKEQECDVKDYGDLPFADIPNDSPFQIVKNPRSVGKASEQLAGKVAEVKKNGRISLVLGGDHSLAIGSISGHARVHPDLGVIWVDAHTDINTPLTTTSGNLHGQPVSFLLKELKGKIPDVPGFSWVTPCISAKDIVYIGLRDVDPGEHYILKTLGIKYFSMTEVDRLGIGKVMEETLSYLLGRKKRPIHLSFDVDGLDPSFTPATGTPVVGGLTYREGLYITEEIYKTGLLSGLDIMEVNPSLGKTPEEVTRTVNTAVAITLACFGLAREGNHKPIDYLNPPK
Here is the method:
as §1, §2

The target of a further test is T3, CFL1 (UniProt P23528 2-166).
T3 construct: also called NP_005498.1
T3 sequence (P23528 2-166 limits assumed): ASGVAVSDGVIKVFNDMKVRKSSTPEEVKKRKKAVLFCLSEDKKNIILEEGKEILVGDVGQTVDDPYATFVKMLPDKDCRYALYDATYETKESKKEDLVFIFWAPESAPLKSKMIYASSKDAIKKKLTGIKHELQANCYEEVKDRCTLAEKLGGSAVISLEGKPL
Here is the method: as §1, §2

In a further test the target is T4, TXN (UniProt P10599 2-105).
T4 construct: also called NP_003320.2
T4 sequence (looked up): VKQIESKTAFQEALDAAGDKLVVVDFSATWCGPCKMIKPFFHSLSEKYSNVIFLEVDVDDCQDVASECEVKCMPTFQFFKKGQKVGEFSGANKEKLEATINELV
Here is the method:
as §1, §2

In another test the target is T5, TNKS1BP1 (UniProt Q9C0C2 1-1729).
T5 construct: also called NP_203754.2
T5 sequence (Q9C0C2 whole entry): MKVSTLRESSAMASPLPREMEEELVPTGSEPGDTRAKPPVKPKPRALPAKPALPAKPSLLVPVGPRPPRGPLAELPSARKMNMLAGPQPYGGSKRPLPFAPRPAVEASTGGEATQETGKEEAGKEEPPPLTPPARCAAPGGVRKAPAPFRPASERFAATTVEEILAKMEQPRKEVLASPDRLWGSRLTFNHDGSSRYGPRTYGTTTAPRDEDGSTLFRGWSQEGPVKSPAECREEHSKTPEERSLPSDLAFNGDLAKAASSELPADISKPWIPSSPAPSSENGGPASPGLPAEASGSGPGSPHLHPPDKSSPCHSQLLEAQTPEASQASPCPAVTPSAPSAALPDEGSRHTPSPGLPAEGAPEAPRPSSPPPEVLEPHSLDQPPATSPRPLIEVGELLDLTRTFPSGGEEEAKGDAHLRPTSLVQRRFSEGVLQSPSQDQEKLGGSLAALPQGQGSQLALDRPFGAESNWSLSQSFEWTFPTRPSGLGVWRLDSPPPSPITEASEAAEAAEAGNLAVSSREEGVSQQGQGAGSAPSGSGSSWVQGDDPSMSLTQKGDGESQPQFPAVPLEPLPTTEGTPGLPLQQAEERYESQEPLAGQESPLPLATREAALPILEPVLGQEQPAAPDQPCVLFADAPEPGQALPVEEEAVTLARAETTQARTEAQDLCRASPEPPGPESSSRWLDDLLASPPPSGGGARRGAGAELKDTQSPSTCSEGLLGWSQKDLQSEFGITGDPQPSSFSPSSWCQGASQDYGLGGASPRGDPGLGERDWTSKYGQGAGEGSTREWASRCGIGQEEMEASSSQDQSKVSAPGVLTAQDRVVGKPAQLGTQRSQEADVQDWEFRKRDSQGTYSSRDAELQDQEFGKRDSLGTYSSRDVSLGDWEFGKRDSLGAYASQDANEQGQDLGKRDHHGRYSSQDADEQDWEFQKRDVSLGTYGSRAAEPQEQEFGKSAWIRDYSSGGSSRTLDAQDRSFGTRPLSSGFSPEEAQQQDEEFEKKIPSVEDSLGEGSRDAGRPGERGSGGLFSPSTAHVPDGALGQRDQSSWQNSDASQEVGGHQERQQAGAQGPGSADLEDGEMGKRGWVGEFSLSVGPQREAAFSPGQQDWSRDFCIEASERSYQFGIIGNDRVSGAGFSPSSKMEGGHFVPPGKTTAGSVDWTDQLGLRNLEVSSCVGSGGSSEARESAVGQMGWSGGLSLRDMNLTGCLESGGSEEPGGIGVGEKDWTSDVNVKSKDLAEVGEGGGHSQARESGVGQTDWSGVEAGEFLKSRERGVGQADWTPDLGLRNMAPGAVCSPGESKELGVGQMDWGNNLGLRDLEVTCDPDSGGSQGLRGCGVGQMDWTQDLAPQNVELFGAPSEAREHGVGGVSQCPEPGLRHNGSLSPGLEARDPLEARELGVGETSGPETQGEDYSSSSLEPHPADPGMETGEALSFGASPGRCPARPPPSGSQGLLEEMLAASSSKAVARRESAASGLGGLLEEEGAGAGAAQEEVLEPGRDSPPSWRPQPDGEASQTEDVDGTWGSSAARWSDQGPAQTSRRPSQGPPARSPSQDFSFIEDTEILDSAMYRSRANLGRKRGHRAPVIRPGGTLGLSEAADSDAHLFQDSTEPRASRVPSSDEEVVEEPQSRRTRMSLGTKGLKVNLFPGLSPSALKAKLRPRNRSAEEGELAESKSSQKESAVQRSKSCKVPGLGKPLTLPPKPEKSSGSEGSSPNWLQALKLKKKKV
Here is the method: as §1, §2

In another test the target is T6, HSPB1 (UniProt P04792 1-205).
T6 construct: also called NP_001531.1
T6 sequence (P04792 whole entry): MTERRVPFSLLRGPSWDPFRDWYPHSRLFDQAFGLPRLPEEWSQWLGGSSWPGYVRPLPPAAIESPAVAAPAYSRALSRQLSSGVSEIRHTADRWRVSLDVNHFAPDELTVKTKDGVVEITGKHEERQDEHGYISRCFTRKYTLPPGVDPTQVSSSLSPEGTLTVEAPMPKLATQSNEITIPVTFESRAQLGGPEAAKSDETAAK
Here is the method: as §1, §2

Another test addresses RPS18 (UniProt P62269 2-152). How it is done: as §1, §2
The target in another test is RPS13 (UniProt P62277 2-151). Here is the method:
as §1, §2

The target in a further test is RPL5 (UniProt P46777 2-297). Here is the method:
as §1, §2

A further test deals with T7, SSRP1 (UniProt Q08945 2-709).
T7 construct: also called NP_003137.1 (+3)
T7 sequence (Q08945 2-709 limits assumed): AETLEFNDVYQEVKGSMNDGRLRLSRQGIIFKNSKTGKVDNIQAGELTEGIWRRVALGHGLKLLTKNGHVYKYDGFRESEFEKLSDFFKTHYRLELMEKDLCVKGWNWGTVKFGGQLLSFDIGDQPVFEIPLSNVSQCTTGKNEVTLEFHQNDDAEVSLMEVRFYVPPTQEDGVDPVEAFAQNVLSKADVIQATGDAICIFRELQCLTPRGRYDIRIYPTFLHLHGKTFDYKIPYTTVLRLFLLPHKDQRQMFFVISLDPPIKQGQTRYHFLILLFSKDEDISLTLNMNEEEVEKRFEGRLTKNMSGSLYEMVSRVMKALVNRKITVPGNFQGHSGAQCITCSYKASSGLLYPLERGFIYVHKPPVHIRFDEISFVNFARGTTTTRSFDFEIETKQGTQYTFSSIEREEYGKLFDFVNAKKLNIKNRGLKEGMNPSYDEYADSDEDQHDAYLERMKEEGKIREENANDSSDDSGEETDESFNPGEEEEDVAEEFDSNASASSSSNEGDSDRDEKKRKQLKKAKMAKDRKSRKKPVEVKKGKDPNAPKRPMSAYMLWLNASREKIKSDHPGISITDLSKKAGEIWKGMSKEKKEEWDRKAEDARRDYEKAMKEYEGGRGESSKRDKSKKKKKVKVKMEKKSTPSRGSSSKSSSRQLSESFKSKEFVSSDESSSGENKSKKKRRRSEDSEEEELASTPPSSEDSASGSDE
Here is the method: as §1, §2

The target of a further test is RPL22 (UniProt P35268 2-128). How it is done: as §1, §2

T1 sequence (Q07955 2-248 limits assumed): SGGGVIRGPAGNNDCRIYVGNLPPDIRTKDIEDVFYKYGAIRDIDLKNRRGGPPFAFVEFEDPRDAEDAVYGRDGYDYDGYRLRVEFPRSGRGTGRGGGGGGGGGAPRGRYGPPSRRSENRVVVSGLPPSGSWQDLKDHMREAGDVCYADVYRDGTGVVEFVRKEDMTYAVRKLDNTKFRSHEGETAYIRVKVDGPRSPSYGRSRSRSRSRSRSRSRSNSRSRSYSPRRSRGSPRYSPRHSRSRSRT

B1: N-terminal FLAG tagged B3GNT2 (enzyme, human, UniProt Q9NY97 1-397, looked up)
chain: MSVGRRRIKLLGILMMANVFIYFIMEVSKSSSQEKNGKGEVIIPKEKFWKISTPPEAYWNREQEKLNRQYNPILSMLTNQTGEAGRLSNISHLNYCEPDLRVTSVVTGFNNLPDRFKDFLLYLRCRNYSLLIDQPDKCAKKPFLLLAIKSLTPHFARRQAIRESWGQESNAGNQTVVRVFLLGQTPPEDNHPDLSDMLKFESEKHQDILMWNYRDTFFNLSLKEVLFLRWVSTSCPDTEFVFKGDDDVFVNTHHILNYLNSLSKTKAKDLFIGDVIHNAGPHRDKKLKYYIPEVVYSGLYPPYAGGGGFLYSGHLALRLYHITDQVHLYPIDDVYTGMCLQKLGLVPEKHKGFRTFDIEEKNKNNICSYVDLMLVHSRKPQEMIDIWSQLQSAHLKC
notes: Bait of the co-IP; pulled down with mouse anti-FLAG from cell lysate; also called N-FLAG B3GNT2; N-term FLAG; not shown: FLAG tag at the N-terminus
As to B1, the “co-IP mass spectrometry count” value in the test with SRSF1 stood at 4; with ARG1, 8; in the test with CFL1, 5; with TXN it was 3; in the test with TNKS1BP1, 2; in the test with HSPB1 it was 3. Moreover, the “co-IP mass spectrometry count” value with RPS18 was determined as 15; with RPS13 it was 3; in the test with RPL5, 0; with SSRP1 it was 0; with RPL22, 0.

The record behind these values is patent publication US20240261333A1 (published 2024).
